For one sequence, EC50 and Kd results are on record in patent US20190177730.

Data set [1] deals with T1, PCSK9 D374Y D374Y (Homo sapiens) (UniProt Q8NBP7+Q8NBP7). The data set is described as follows: inhibition. Particulars: all C = PP-dC (5-position), all U = Nap-dU (5-position); blocks PCSK9 D374Y binding to LDL-R, room temperature; text names 11733-198.
For data set [2], the target named is T1, PCSK9 D374Y D374Y (Homo sapiens). The data set is described as follows: filter. Particulars: all C = PP-dC (5-position), all U = Nap-dU (5-position); aptamer identity per figure legend; text names 11733-198.

T1 sequence (Q8NBP7 whole entry, stated change not applied, chain 1 of 2): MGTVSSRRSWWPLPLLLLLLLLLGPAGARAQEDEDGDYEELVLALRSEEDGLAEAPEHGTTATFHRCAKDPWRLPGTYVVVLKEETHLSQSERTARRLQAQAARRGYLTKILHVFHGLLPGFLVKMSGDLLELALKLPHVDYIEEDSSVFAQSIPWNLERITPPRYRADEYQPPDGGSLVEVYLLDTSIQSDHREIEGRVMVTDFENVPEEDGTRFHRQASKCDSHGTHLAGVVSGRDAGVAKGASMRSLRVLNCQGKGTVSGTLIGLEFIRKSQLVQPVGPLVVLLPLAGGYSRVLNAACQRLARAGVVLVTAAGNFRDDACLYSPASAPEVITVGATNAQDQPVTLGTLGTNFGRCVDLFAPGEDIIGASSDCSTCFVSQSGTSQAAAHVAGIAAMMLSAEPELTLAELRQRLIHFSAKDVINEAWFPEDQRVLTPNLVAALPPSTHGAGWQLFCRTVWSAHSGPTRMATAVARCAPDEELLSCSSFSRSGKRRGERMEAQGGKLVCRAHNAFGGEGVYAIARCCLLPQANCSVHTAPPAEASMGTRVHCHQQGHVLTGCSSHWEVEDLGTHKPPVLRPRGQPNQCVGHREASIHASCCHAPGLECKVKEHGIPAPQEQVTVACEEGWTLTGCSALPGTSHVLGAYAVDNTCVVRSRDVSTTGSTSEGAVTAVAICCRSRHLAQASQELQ
T1 sequence (Q8NBP7 whole entry, stated change not applied, chain 2 of 2): as the sequence (Q8NBP7 whole entry, stated change not applied, chain 1 of 2) above

For “AACGUACUUUAAGGCCUAUUGAGGAAACUC [11733-44 (SL1063)]”, the half-maximal effective concentration (EC50) in data set [1] amounted to 3.6 nM. The same sequence came in with a dissociation constant (Kd) in data set [2] of 0.0052 nM.
